From patent publication US20140045742A1
Where no end group is shown, it is not given here.

B1: fusion polypeptide FP-3 (protein)
chain: GKSGTEAAGAMFLEAIPMSGGGGSGGGGSGGGGTTWEAWDRAIAEYAARIEALIRAAQEQQERNEAALREL
B2: fusion polypeptide FP-2 (protein)
chain: GRGTEAAGAMFLEAIPMSTTWMEWDKEINNYTSLIHSLIEESQNQQEKNEQELL
B3: fusion polypeptide FP-1 (protein)
chain: GRTEAAGAMFLEAIPMSGGGGSGGGGSGGGGTWQEWEQKITALLEQAQIQQEKNEYELQKLDKWASLWEWF

What follows are binders tested against HIV HR1 peptide (heptad repeat 1) (HIV) (assay: SPR (BIAcore), HIV HR1 peptide immobilized on CM5 chip).

Going from B1 to B2, the Ka falls from 3.22e+10 M⁻¹ to 1.08e+10 M⁻¹ (3-fold).

B3 gave a Ka of 6.29e+08 M⁻¹.

Compared with B1, B2 is 3-fold higher in Kd: 31 pM for the first, 92.4 pM for the second. The first binds more tightly here.

With B3 the Kd was 1590 pM.

Going from B1 to B2, the koff rises from 3.07e-05 s⁻¹ to 0.000119 s⁻¹ (3.9-fold).

With B3 the koff was 0.000361 s⁻¹.

B1 and B2 are within 1.5-fold of each other in kon: 991000 M⁻¹ s⁻¹ for the first, 1.29e+06 M⁻¹ s⁻¹ for the second.

Work on B3 yielded a kon of 227000 M⁻¹ s⁻¹.

These binders were tested against alpha1-antitrypsin, P01009 (assay: in vitro association of the serpin-finger polypeptide with alpha1-antitrypsin).
Sequence of alpha1-antitrypsin, P01009 (P01009 25-418 limits assumed): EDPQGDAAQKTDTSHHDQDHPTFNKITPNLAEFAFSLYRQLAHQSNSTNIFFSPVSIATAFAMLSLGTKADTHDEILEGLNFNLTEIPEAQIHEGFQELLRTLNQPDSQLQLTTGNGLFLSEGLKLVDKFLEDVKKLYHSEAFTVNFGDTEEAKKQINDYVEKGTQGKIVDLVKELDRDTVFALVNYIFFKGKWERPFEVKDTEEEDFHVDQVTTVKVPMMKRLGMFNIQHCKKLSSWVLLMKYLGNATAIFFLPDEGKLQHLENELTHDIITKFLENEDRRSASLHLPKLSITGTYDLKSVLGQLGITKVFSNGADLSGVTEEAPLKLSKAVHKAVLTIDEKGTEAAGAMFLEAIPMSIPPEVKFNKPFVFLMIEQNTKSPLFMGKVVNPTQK

Going from Ac-TEAAGATAVVIA to Ac-SEAAASMFLEAI, the in vitro association T1/2 falls from 9.5 h to 4 h (2.4-fold).

First: Ac-TDAAGATAVVIA
Second: Ac-SEAAASTAVVIA
The in vitro association T1/2 of the first is 11-fold higher: 16 h for the first, 1.4 h for the second.

First: Ac-TAVVIA [Ac-TAVVIA]
Second: Ac-TEAAGAMFFEAIPM
The in vitro association T1/2 of the first is 1.6-fold higher: 16 h for the first, 10 h for the second.

Going from Ac-TEAAGAMFLEAIVM to Ac-SDAAGAMFLEAI, the in vitro association T1/2 rises from 10 h to 16 h (1.6-fold).
